For three molecules, ECL signal results are on record in patent US20120316071A1 (published 2012).

In experiment [1] the target is T1, rHuman ErbB2/Fc Chimera, CF (R&D Systems Cat#1129-ER) (human, UniProt P04626 23-652).
T1 construct: Bought reagent; also called human epidermal growth factor 2 receptor; Fc part of the bought chimera not given
The experiment in a line: MSD Multispot ECL, antigen spotted on plate, Fab 2.0 nM; blank spot 316.

Experiment [2] addresses T2, rHuman EGF R/Fc Chimera, CF (R&D Systems Cat#344-ER) (human, UniProt P00533 25-645).
T2 construct: Bought reagent; also called epidermal growth factor receptor; Fc part of the bought chimera not given
The description is as above.

Experiment [3] concerns the target T3, rHuman Erythropoietin R/Fc Chimera, CF (R&D Systems Cat#963-ER) (human, UniProt P19235 25-250).
T3 construct: Bought reagent; also called EPO R/Fc; EPO R; Fc part of the bought chimera not given
T3 sequence (looked up): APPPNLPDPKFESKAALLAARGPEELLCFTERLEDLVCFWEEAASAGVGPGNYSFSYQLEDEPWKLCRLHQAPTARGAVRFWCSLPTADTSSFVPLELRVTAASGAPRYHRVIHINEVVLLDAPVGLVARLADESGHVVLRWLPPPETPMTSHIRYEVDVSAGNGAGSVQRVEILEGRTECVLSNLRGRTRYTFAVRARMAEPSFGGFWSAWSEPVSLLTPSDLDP
The experiment is described as above.

Experiment [4] addresses T4, rHuman IGF-1 sR, (IGF-1 sR), CF (R&D Systems Cat#391-GR) (human, UniProt P08069 31-932).
T4 construct: Bought soluble receptor; also called insulin-like growth factor-1 soluble receptor
Described as above.

For experiment [5], the target named is T5, rHuman HGF R/c-MET/Fc Chimera, CF (R&D Systems Cat#358-MT/CF) (human, UniProt P08581 25-932).
T5 construct: Bought reagent; also called HGF R/Fc; hepatocyte growth factor receptor; Fc part of the bought chimera not given
T5 sequence (P08581 25-932, change not shown): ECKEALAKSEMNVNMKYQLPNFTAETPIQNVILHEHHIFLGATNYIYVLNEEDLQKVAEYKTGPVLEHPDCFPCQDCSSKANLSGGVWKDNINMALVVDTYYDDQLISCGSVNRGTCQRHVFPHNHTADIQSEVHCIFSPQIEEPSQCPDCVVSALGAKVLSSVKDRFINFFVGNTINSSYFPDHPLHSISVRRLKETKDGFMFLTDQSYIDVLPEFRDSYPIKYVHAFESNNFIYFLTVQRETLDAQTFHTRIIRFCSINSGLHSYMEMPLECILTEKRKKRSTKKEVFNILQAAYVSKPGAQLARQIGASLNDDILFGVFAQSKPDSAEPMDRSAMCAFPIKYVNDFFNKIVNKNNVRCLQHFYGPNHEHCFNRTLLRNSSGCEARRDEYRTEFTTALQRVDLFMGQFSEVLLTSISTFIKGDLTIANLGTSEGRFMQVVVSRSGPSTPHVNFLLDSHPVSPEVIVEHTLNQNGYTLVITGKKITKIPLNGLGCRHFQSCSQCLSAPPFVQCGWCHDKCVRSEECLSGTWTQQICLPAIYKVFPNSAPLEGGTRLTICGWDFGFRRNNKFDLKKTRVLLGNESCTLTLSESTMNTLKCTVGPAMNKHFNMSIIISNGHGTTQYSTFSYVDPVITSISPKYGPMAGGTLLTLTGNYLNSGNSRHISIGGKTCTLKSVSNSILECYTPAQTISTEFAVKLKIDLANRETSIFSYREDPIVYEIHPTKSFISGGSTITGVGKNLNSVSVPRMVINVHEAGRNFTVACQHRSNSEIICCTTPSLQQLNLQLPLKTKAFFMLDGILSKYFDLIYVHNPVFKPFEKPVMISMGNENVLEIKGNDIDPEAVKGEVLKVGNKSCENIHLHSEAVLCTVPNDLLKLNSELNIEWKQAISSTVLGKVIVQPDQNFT
Described as above.

The target of experiment [6] is T6, rHuman CD44/Fc Chimera, CF (R&D Systems Cat#3660-CD) (human, UniProt P16070 21-220).
T6 construct: Bought reagent; Fc part of the bought chimera not given
The experiment is described as above.

For experiment [7], the target named is T7, Recombinant Human DLL4 (R&D Systems Cat#1506-D4/CF) (human, UniProt Q9NR61 27-529).
T7 construct: Bought recombinant protein; also called rHuman DLL4; delta-like protein 4
Described as above.

The target in experiment [8] is T8, rHuman Notch-1/Fc Chimera, CF (R&D Systems Cat#3647-TK) (human, UniProt P46531 19-526).
T8 construct: Bought reagent; Fc part of the bought chimera not given
The experiment is described as above.

In experiment [9] the target is T9, rHuman IGF-1 sR, CF (R&D Systems Cat#391-GR) (human, UniProt P08069 31-932).
T9 construct: Bought recombinant soluble receptor; also called insulin-like growth factor-1 soluble receptor
The experiment in a line: MSD multispot ECL, antigen spotted on plate; Fab 0.51 uM; blank spot 1096.

Experiment [10] addresses T10, rHuman Erythropoietin R/Fc Chimera, CF (R&D Systems Cat#963-ER) (human, UniProt P19235 25-250).
T10 construct: Bought recombinant protein; also called EPO R/Fc; Epo R; Fc part of the bought chimera not given
T10 sequence (looked up): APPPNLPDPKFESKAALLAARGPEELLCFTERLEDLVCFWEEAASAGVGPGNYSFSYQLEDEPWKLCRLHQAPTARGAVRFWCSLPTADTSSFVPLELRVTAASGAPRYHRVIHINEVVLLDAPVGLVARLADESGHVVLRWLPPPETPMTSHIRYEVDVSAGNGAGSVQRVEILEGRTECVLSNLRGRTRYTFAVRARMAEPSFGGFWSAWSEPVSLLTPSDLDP
Described as above.

Experiment [11] deals with T11, rHuman CD44/Fc Chimera, CF (R&D Systems Cat#3660-CD) (human, UniProt P16070 21-220).
T11 construct: Bought recombinant protein; Fc part of the bought chimera not given
The description is as above.

The target of experiment [12] is T12, Recombinant Human DLL4 (R&D Systems Cat#1506-D4/CF) (human, UniProt Q9NR61 27-524).
T12 construct: Bought recombinant protein; also called delta-like protein 4; rHuman DLL4
Described as above.

For experiment [13], the target named is T13, rHuman Notch-1/Fc Chimera, CF (R&D Systems Cat#3647-TK) (human, UniProt P46531 19-526).
T13 construct: Bought recombinant protein; Fc part of the bought chimera not given
The experiment is described as above.

Experiment [14] concerns the target T14, rHuman Notch-1/Fc Chimera, CF (R&D Systems Cat#3647-TK) (human, UniProt P46531 19-526).
T14 construct: Bought from R&D Systems; not shown: Fc of the bought chimera
Description: MSD multispot ECL, antigen spotted on plate, Fab 1410 nM; blank spot 709.

Experiment [15] concerns the target T15, Recombinant Human DLL4 (R&D Systems Cat#1506-D4/CF) (human, UniProt Q9NR61 27-524).
T15 construct: Bought from R&D Systems; also called rHuman DLL4; delta-like protein 4
The description is as above.

The target of experiment [16] is T16, rHuman Erythropoietin R/Fc Chimera, CF (R&D Systems Cat#963-ER) (human, UniProt P19235 25-250).
T16 construct: Bought from R&D Systems; also called EPO R/Fc; Epo R/Fc chimera; not shown: Fc of the bought chimera
T16 sequence (looked up): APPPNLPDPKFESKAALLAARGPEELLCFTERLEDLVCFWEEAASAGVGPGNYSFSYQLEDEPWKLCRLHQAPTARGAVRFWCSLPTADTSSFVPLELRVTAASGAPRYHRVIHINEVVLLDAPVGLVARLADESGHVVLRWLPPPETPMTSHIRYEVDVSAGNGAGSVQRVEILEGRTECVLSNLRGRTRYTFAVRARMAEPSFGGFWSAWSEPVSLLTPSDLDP
The description is as above.

The target of experiment [17] is T17, rHuman P-Cadherin/Fc Chimera, CF (R&D Systems Cat#861-PC) (human, UniProt P22223 108-654).
T17 construct: Bought from R&D Systems; not shown: Fc of the bought chimera
The description is as above.

Experiment [18] addresses T18, rHuman CD44/Fc Chimera, CF (R&D Systems Cat#3660-CD) (human, UniProt P16070 21-220).
T18 construct: Bought from R&D Systems; not shown: Fc of the bought chimera
The experiment is described as above.

B1: Fab VH1-8_IGHD2-2*01_IGHJ6*01 & L12_IGKJ1*01 (Fab, V domains shown)
VH: QVQLVQSGAEVKKPGASVKVSCKASGYTFTSYDINWVRQATGQGLEWMGWMNPNSGNTGYAQKFQGRVTMTRNTSISTAYMELSSLRSEDTAVYYCARGGYCSSTSCYADYYYYYGMDVWGQGTTVTVSS
VL: not shown
With B1, the ECL signal in [1] amounted to 382; in experiment [2], 424; in experiment [3], 433; in [4], 367; in experiment [5], 356; in experiment [6] it was 447. Besides, the ECL signal is 605 in [7] and 539 in [8].

B2: Fab VH4-34_IGHD7-27*01_IGHJ4*01 & L5_IGKJ1*01 (Fab, V domains shown)
VH: QVQLQQWGAGLLKPSETLSLTCAVYGGSFSGYYWSWIRQPPGKGLEWIGEINHSGSTNYNPSLKSRVTISVDTSKNQFSLKLSSVTAADTAVYYCARANWGDYFDYWGQGTLVTVSS
VL: DIQMTQSPSSVSASVGDRVTITCRASQGISSWLAWYQQKPGKAPKLLIYAASSLQSGVPSRFSGSGSGTDFTLTISSLQPEDFATYYCQQANSFPPWTFGQGTKVEIKR
notes: Germline library Fab expressed in E. coli; VH was cloned into Plasmid A, which adds CH1 with His6 and Flag tags
Turning to B2, the ECL signal in [9] is 2240; in [10], 2620; in experiment [11], 2010; in [12], 5180; in [13], 2770.

B3: Fab VH1-46_IGHD3-10*01_IGHJ4*01 & B3_IGKJ1*01 (Fab, V domains shown)
VH: QVQLVQSGAEVKKPGASVKVSCKASGYTFTSYYMHWVRQAPGQGLEWMGIINPSGGSTSYAQKFQGRVTMTRDTSTSTVYMELSSLRSEDTAVYYCAREYYYGSGSYYNDYFDYWGQGTLVTVSS
VL: not shown
notes: Tested as a Fab made in E. coli; VH was cloned into Plasmid A (CH1 constant region, His6 and Flag tags); The kappa VL was cloned into Plasmid C (kappa CL)
As to B3, the ECL signal in [14] turned out to be 1030; in experiment [15], 1260; in experiment [16] it was 4310; in experiment [17], 1060; in experiment [18], 885.
